T1: Nitric oxide synthase 3 (NOS3), bovine, full-length (bovine, UniProt P29473 1-1205)
T1 construct: Nitric oxide synthase 3 (endothelial NOS), bovine, heterologously expressed in E. coli; called full-length NOS3 in the abstract and discussion; also called eNOS; endothelial nitric oxide synthase; source: E. coli BL21(DE3), purified
T1 sequence (looked up): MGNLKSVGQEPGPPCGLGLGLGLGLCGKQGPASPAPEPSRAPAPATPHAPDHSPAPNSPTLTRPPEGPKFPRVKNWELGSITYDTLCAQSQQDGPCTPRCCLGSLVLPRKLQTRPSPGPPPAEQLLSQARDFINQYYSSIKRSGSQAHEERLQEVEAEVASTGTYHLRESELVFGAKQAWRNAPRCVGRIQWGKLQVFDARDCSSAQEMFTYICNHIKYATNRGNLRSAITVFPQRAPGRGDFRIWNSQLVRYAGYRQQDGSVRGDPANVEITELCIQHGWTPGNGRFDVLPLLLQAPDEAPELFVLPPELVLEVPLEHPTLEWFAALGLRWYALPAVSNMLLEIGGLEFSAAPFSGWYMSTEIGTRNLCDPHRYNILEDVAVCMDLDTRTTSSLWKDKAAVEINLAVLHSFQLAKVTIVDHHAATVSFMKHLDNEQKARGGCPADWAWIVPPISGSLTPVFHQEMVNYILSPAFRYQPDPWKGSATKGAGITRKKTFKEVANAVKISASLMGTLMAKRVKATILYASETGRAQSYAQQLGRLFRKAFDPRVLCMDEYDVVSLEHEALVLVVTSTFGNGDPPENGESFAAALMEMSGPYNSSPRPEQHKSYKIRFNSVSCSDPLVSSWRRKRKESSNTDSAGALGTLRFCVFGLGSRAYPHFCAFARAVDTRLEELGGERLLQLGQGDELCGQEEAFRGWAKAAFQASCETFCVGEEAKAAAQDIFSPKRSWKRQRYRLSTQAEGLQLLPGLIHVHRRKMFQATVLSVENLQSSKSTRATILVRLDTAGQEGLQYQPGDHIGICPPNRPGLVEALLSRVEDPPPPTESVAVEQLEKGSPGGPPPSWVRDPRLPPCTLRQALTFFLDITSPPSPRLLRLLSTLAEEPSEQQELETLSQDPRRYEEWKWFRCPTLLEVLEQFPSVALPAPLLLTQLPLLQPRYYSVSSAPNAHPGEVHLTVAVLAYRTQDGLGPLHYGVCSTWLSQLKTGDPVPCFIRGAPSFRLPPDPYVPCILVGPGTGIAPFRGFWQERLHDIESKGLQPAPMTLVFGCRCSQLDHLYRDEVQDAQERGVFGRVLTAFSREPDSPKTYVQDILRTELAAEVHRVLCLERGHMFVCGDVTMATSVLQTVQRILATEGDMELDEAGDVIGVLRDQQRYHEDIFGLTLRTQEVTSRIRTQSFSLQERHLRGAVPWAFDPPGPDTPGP

B1: AI peptide (NOS3 autoinhibitory loop site) (peptide)
peptide: Biotin-YKIRFNSISCSDPLVSSWRRKRKESSNTDSA
notes: source: synthetic peptide, bought: Biomatik
B2: NOS3 NtMAP peptide (N-terminal MAP kinase site), biotinylated (peptide)
peptide: Biotin-CTPRRCLGSLVFPRKLQGRPSPGPPA
modifications: cysteine pairing not given here
notes: Human NOS3, N-terminal MAP kinase (NtMAP) site with the S114 site, unphosphorylated; source: synthetic peptide (Biomatik)
B3: Active GST-JNK1α1 (SignalChem), biotinylated (enzyme, UniProt P45983-2 1-384, looked up)
chain: MSRSKRDNNFYSVEIGDSTFTVLKRYQNLKPIGSGAQGIVCAAYDAILERNVAIKKLSRPFQNQTHAKRAYRELVLMKCVNHKNIIGLLNVFTPQKSLEEFQDVYIVMELMDANLCQVIQMELDHERMSYLLYQMLCGIKHLHSAGIIHRDLKPSNIVVKSDCTLKILDFGLARTAGTSFMMTPYVVTRYYRAPEVILGMGYKENVDLWSVGCIMGEMVCHKILFPGRDYIDQWNKVIEQLGTPCPEFMKKLQPTVRTYVENRPKYAGYSFEKLFPDVLFPADSEHNKLKASQARDLLSKMLVIDASKRISVDEALQHPYINVWYDPSEAEAPPPKIPDKQLDEREHTIEEWKELIYKEVMDLEERTKNGVIRGQPSPLAQVQQ
modifications: active (phosphorylated) form; biotinylated by amine crosslinking to NHS-LC-LC-biotin, 5 : 1 molar ratio of biotin to protein
notes: also called c-Jun N-terminal kinase; source: bought: SignalChem (Lot #X561-2)
B4: Active GST-JNK1α1 (SignalChem) (enzyme, UniProt P45983-2 1-384, looked up)
chain: B3 chain
modifications: active (phosphorylated) form, sites not given; biotin by amine crosslinking to NHS-LC-LC-biotin (5:1 biotin to protein)
notes: Biotinylated and held on streptavidin sensors for the NOS3 experiment; also called c-Jun N-terminal kinase; source: bought: SignalChem (JNK1, Lot #X561-2), GST-purified, active
B5: NOS3 (bovine), full-length (enzyme, UniProt P29473 1-1205, looked up)
chain: T1 sequence (looked up)
notes: Nitric oxide synthase 3 (endothelial NOS), bovine, heterologously expressed; called full-length in the abstract and discussion; also called nitric oxide synthase 3; eNOS; source: E. coli BL21(DE3), purified
B6: NtMAP peptide (NOS3 N-terminal MAP kinase site) (peptide)
peptide: Biotin-CTPRRCLGSLVFPRKLQGRPSPGPPA
modifications: cysteine pairing not given here
notes: Human NOS3, N-terminal MAP kinase (NtMAP) site with the S114 site; source: synthetic peptide, bought: Biomatik

Where no end group is shown, it is not given here. The star is where a group is joined. Biotin = O=C1N[C@H]2[C@H](CS[C@H]2CCCCC(=O)*)N1

Details in all cases: both partners purified
The target in test [1] is p38α, inactive (unphosphorylated), His-purified (UniProt Q16539 1-360). The test can be described thus: BLI; N-terminally biotinylated NOS3 peptides on streptavidin sensors, inactive MAP kinases as analytes at 31-1000 nM; 25 °C; PBS with 10% glycerol, 0.005% tween, 1 mM DTT; global one-state association-then-dissociation fit. For orientation: In BLI a coated tip is dipped into the sample, and binding shifts an interference pattern.

For test [2] the target is unchanged. The test can be described thus: BLI; N-terminally biotinylated NOS3 peptides on streptavidin sensors, inactive MAP kinases as analytes (31 to 1000 nM); 25 °C; PBS with 10% glycerol, 0.005% tween, 1 mM DTT; global one-state association-then-dissociation fit.
Target sequence in this assay (Q16539 whole entry): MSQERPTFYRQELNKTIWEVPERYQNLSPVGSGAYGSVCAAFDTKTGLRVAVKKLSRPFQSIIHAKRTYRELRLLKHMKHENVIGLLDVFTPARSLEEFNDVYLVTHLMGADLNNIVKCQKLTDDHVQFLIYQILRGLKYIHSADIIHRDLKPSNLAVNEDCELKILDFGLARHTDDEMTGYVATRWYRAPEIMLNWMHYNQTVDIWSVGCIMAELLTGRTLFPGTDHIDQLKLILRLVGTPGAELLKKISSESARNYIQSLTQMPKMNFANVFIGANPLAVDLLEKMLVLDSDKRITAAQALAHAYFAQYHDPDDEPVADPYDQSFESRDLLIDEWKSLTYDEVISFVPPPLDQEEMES
The target of test [3] is T1, Nitric oxide synthase 3 (NOS3), bovine, …. The test can be described thus: BLI; biotinylated active GST-JNK1α1 on streptavidin sensors, NOS3 as analyte (25 to 800 nM); 25 °C; 50 mM Tris pH 7.4, 10 mM NaCl, 10% glycerol, 0.01% Tween-20; global one-state association-then-dissociation fit.
The target of test [4] is B5. The test can be described thus: BLI; biotinylated active GST-JNK1α1 (or the fusion partner alone as control) on streptavidin sensors, NOS3 as analyte at 25-800 nM; 25 °C; 50 mM Tris pH 7.4, 10 mM NaCl, 10% glycerol, 0.01% Tween-20; global one-state association-then-dissociation fit.
Test [5] deals with B4. Described as above.

A word on the Kd: it is the concentration at which binding is half-saturated. Lower therefore signals a tighter complex. As a reminder, the koff is a measure of how fast the partners let go of each other. For orientation: kon means a measure of how fast the partners come together. Lower therefore signals slow association. In test [1], B1 had a Kd of 61 nM, a koff of 0.00096 s⁻¹ and a kon of 16000 M⁻¹ s⁻¹.
In test [2], B2 returned a koff of 0.000534 s⁻¹ and a kon of 17300 M⁻¹ s⁻¹.
The matching figures for Biotin-YKIRFNSISCSDPLVSSWRRKRKESSNTDSA (source: synthetic peptide (Biomatik)) [NOS3 AI peptide (autoinhibitory loop site), biotinylated]: 0.000968 s⁻¹ and 15900 M⁻¹ s⁻¹.
In turn, B3 had a koff in test [3] of 6.19e-05 s⁻¹.
On to B4, for which, in test [4], the equilibrium dissociation constant (Kd) came out at 15 nM, the koff came to 6.2e-05 s⁻¹ and the kon was determined as 4110 M⁻¹ s⁻¹.
As for B5, the “KD (fit without the 400 nM trace)” value in test [5] was determined as 18 nM.
In test [1], B6 returned a Kd of 31 nM, a koff of 0.00053 s⁻¹ and a kon of 17000 M⁻¹ s⁻¹.
